Where two headings read alike, the source gives them in different places.
T1: mouse CD40 on HEK293A cells (mouse, UniProt P27512 20-289)
T1 sequence: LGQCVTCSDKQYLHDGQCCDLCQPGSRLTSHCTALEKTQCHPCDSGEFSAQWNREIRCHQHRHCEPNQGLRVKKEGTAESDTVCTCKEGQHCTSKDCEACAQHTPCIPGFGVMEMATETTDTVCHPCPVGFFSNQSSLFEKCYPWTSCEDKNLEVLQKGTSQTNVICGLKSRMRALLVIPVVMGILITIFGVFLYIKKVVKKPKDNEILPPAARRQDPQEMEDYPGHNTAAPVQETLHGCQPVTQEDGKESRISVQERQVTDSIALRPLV

T2: monkey CD40 on HEK293A/monkey CD40 cells (monkey, UniProt P25942 21-277 (human entry))
T2 chain: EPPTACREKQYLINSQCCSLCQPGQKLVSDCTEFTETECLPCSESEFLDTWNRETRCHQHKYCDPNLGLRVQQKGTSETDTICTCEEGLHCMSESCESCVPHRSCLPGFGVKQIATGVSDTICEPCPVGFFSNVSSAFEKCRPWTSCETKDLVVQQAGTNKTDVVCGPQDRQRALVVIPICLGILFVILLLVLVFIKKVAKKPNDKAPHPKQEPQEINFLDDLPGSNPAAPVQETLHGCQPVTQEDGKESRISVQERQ


Assays:
[1] = target: T1, mouse CD40 on HEK293A cells; assay: FACS on HEK293A cells expressing mouse CD40
Description: (§1) The bispecific antibodies as prepared above were tested for their binding capability to cell surface human, monkey and mouse CD40 proteins by FACS, using the HEK293A cells prepared in Example 1 that stably expressed human, monkey or mouse CD40. Briefly, a 96-well plate was seeded with 10⁵ HEK293A cells in 50 μl PBS, and then added with 100 μl serially diluted anti-CD40 antibody 714VH2VL2 and the bispecific antibodies of the disclosure (starting concentration at 40 μg/ml). After incubation at 4° C. for 1 h, the plate was washed by PBST for 3 times. The plate was added with 1:500 diluted APC-goat anti-mouse IgG (Cat #:405308, BioLegen, USA), incubated at 4° for 1 h, washed with PBS for 3 times, and subjected to fluorescence measurement in a FACS machine (BD).

[2] = target: T3, human CD40 on HEK293A/human CD40 cells (human, UniProt P25942 21-277); assay: FACS on HEK293A/human CD40 cells
T3 construct: also called HEK-Blue/CD40 cells
Description: as §1

[3] = target: T2, monkey CD40 on HEK293A/monkey CD40 cells; assay: FACS on HEK293A/monkey CD40 cells
Description: as §1

[4] = target: T4, human PD-L1 on HEK293A/human PD-L1 cells (human, UniProt Q9NZQ7 19-290); assay: FACS on HEK293A/human PD-L1 cells
Description: as §1
(§2) Following the protocol of Example 4, the bispecific antibodies were tested for their binding capability to cell surface human, or monkey PD-L1 proteins by FACS, using the HEK293A cells prepared in Example 1 that stably expressed human or monkey […].

[5] = target: monkey PD-L1 on HEK293A/monkey PD-L1 cells (monkey, UniProt Q9NZQ7 19-290 (human entry)); assay: FACS on HEK293A/monkey PD-L1 cells
Description: as §1, §2

[6] = target: T4, human PD-L1 on HEK293A/human PD-L1 cells; assay: FACS on HEK293A/human PD-L1 cells; remark: listed apart in the source
Description: as §1
(§3) Following the protocols in Example 4 and Example 5, the bi- or multi-specific antibodies of the disclosure were tested for their binding capability to human PD-L1 and human CD40 proteins by FACS using the HEK293A cells prepared in Example 1 that stably expressed human PD-L1 or human CD40.

[7] = target: T4, human PD-L1 on HEK293A/human PD-L1 cells; assay: FACS on HEK293A/human PD-L1 cells; remark: listed apart in the source
Description: as §1, §3

[8] = target: T4, human PD-L1 on HEK293A/human PD-L1 cells; assay: FACS on HEK293A/human PD-L1 cells; remark: listed apart in the source
Description: as §1, §3

[9] = target: T4, human PD-L1 on HEK293A/human PD-L1 cells; assay: FACS blocking assay on HEK293A/human PD-L1 cells; blocked ligand PD-1-Fc
Description: (§4) The bispecific antibodies were tested for their blocking activity on PD-1-PD-L1 binding by FACS using the HEK293A cells stably expressing human PD-L1 molecules as prepared in Example 1. Briefly, a 96-well plate was seeded with 10⁵ HEK293A/human PD-L1 cells in 100 μl cell culture medium, and then added with 50 μl serially diluted anti-PD-L1 antibody 56E5VH5VL4 or MBS307-3 molecules. After incubation at 4° C. for 1 h. the plate was washed with PBST for 3 times, added with 100 μl 200 μg/ml PD-1-Fc fusion proteins (Cat #:10377-10211, Sino Biological, CN), incubated at 4° C. for 1 h, washed with PBST for 3 times, and added with 1:500 diluted PE-goat anti-human IgG (Cat #:PAI-86078, Thermofisher, USA). After incubation at 4° C. for 1 h, the plate was washed with PBST for 3 times and measured for fluorescence using a FACS machine (BD).

[10] = target: T4, human PD-L1 on HEK293A/human PD-L1 cells; assay: as above; remark: listed apart in the source
Description: as §4
(§5) Following the protocol of Example 7, the bi- or multi-specific antibodies were tested for their capability to block PD-1-PD-L1 binding by FACS, using the HEK293A cells prepared in Example 1 that stably expressed human PD-L1 molecules.

[11] = target: T4, human PD-L1 on HEK293A/human PD-L1 cells; assay: as above; remark: listed apart in the source
Description: as §4, §5

T4 sequence (Q9NZQ7 19-290 limits assumed): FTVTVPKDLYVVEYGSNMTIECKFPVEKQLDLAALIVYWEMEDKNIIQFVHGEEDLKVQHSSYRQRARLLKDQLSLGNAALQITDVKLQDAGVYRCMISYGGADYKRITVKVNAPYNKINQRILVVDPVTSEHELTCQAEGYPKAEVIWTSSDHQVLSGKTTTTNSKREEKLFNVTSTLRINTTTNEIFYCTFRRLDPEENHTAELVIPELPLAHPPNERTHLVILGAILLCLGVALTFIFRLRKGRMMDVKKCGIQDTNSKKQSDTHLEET
Chain of monkey PD-L1 on HEK293A/monkey PD-L1 cells (Q9NZQ7 other isoform, or with tags, fused parts or gaps limits assumed): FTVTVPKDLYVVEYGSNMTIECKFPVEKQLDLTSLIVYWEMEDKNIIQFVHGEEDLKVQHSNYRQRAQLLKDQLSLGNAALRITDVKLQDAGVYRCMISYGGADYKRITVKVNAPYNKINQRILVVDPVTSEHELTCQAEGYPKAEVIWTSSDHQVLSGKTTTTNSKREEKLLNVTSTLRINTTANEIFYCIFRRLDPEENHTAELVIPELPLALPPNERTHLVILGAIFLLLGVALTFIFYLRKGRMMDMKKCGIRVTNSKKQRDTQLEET

Row | EC50 (read off the curve) [2] | EC50 (read off the curve) [3] | EC50 (read off the curve) [4] | binding result [5] | EC50 (read off the curve) [6] | EC50 (read off the curve) [7] | EC50 (read off the curve) [8] | EC50 (read off the curve) [5] | IC50 (read off the curve) [9] | IC50 (read off the curve) [10] | IC50 (read off the curve) [11] | Binder | binding result [1]
1 | ~0.2 µg/mL | ~0.2 µg/mL | ~0.3 µg/mL | binds |  |  |  |  |  |  |  | MBS307-1 (bispecific antibody, human IgG1, kappa, L234A L235A, Both long chains carry linker 1-TGFBII at the C terminus; also called asymmetrical anti-CD40/PD-L1 antibody MBS307-1; MBS307-1-1 + MBS307-1-2) heavy 1: QVQLQESGPGLVKPSDTLSLTCAVSGYSITTNYYWNWIRQPPGKGLEWMGYIKYDGSNNYNPSLKNRITISVDTSKNQFSLKLSSVTAVDTAVYYCARLDYWGQGTLVTVSSASTKGPSVFPLAPSSKSTSGGTAALGCLVKDYFPEPVTVSWNSGALTSGVHTFPAVLQSSGLYSLSSVVTVPSSSLGTQTYICNVNHKPSNTKVDKKVEPKSCDKTHTCPPCPAPEAAGGPSVFLFPPKPKDTLMISRTPEVTCVVVDVSHEDPEVKFNWYVDGVEVHNAKTKPREEQYNSTYRVVSVLTVLHQDWLNGKEYKCKVSNKALPAPIEKTISKAKGQPREPQVYTLPPSREEMTKNQVSLWCLVKGFYPSDIAVEWESNGQPENNYKTTPPVLDSDGSFFLYSKLTVDKSRWQQGNVFSCSVMHEALHNHYTQKSLSLSPGGGGSGGGGSGGGGSGGGGSGIPPHVQKSVNNDMIVTDNNGAVKFPQLCKFCDVRFSTCDNQKSCMSNCSITSICEKPQEVCVAVWRKNDENITLETVCHDPKLPYHDFILEDAASPKCIMKEKKKPGETFFMCSCSSDECNDNIIFSEEYNTSNPD light 1: DVVLTQSPLSLPVTLGQPASISCRSSQSLENSNGNTFLNWFQQRPGQSPRLLIYKVSNRFSGVPDRFSGSGSGTDFTLKISRVEAEDVGVYYCLQVTHVPFTFGQGTKLEIKRTVAAPSVFIFPPSDEQLKSGTASVVCLLNNFYPREAKVQWKVDNALQSGNSQESVTEQDSKDSTYSLSSTLTLSKADYEKHKVYACEVTHQGLSSPVTKSFNRGEC heavy 2: QVQLQESGPGLVKPSQTLSLTCTVSGGSITSDYWNWIRQHPGNKLEYMGYISYTGSTYYNPSLKSRISITRDTSKNQFSLKLSSVTTADTAVYYCARYRDWDVRAMDYWGQGTTVTVSSASTKGPSVFPLAPSSKSTSGGTAALGCLVKDYFPEPVTVSWNSGALTSGVHTFPAVLQSSGLYSLSSVVTVPSSSLGTQTYICNVNHKPSNTKVDKKVEPKSCDKTHTCPPCPAPEAAGGPSVFLFPPKPKDTLMISRTPEVTCVVVDVSHEDPEVKFNWYVDGVEVHNAKTKPREEQYNSTYRVVSVLTVLHQDWLNGKEYKCKVSNKALPAPIEKTISKAKGQPREPQVYTLPPSREEMTKNQVSLSCAVKGFYPSDIAVEWESNGQPENNYKTTPPVLDSDGSFFLVSKLTVDKSRWQQGNVFSCSVMHEALHNHYTQKSLSLSPGGGGSGGGGSGGGGSGGGGSGIPPHVQKSVNNDMIVTDNNGAVKFPQLCKFCDVRFSTCDNQKSCMSNCSITSICEKPQEVCVAVWRKNDENITLETVCHDPKLPYHDFILEDAASPKCIMKEKKKPGETFFMCSCSSDECNDNIIFSEEYNTSNPD light 2: not shown | no binding (tested: starting concentration at 40 µg/ml)
2 |  |  | ~0.07 µg/mL |  | ~0.04 µg/mL | ~0.04 µg/mL | ~0.05 µg/mL | ~0.04 µg/mL | ~0.06 µg/mL | ~0.06 µg/mL | ~0.02 µg/mL | anti-PD-L1 antibody 56E5VH5VL4 (antibody, V domains shown, also called the monospecific anti-PD-L1 antibody; 56E5VH5CL4 [sic]) VH: QVQLQESGPGLVKPSQTLSLTCTVSGGSITSDYWNWIRQHPGNKLEYMGYISYTGSTYYNPSLKSRISITRDTSKNQFSLKLSSVTTADTAVYYCARYRDWDVRAMDYWGQGTTVTVSS VL: DIVMTQSPDSLAVSLGEKVTMNCKSSQSLLISGNQKNFLTWYQQKPGQPPKLLIYWASTRESGVPDRFSGSGSGTDFTLTISSLQAEDLAVYYCQNDFGFPFTFGQGTKVEIK | 

From patent US20240084027A1 (BEIJING MABWORKS, published 2024)
